Patent US20110091993A1 (SEKISUI MEDICAL, published 2011)

Assays:
[1] = target: T1, purified human soluble LR11 (human, UniProt Q92673 82-2137, limits assumed); experiment: sandwich ELISA, immobilized mouse IgG, liquid-phase biotinylated M3
T1 construct: Natural shed soluble form from serum (Lot. 061208); Also used for native soluble LR11 measured directly in human serum and cerebrospinal fluid; also called purified human LR11; soluble LR11 in human serum

[2] = target: T2, purified rabbit soluble LR11 (rabbit, UniProt Q95209 82-2136, limits assumed); experiment: as above
T2 construct: also called purified rabbit LR11; soluble LR11 in rabbit serum
T2 sequence (Q95209 82-2136 limits assumed): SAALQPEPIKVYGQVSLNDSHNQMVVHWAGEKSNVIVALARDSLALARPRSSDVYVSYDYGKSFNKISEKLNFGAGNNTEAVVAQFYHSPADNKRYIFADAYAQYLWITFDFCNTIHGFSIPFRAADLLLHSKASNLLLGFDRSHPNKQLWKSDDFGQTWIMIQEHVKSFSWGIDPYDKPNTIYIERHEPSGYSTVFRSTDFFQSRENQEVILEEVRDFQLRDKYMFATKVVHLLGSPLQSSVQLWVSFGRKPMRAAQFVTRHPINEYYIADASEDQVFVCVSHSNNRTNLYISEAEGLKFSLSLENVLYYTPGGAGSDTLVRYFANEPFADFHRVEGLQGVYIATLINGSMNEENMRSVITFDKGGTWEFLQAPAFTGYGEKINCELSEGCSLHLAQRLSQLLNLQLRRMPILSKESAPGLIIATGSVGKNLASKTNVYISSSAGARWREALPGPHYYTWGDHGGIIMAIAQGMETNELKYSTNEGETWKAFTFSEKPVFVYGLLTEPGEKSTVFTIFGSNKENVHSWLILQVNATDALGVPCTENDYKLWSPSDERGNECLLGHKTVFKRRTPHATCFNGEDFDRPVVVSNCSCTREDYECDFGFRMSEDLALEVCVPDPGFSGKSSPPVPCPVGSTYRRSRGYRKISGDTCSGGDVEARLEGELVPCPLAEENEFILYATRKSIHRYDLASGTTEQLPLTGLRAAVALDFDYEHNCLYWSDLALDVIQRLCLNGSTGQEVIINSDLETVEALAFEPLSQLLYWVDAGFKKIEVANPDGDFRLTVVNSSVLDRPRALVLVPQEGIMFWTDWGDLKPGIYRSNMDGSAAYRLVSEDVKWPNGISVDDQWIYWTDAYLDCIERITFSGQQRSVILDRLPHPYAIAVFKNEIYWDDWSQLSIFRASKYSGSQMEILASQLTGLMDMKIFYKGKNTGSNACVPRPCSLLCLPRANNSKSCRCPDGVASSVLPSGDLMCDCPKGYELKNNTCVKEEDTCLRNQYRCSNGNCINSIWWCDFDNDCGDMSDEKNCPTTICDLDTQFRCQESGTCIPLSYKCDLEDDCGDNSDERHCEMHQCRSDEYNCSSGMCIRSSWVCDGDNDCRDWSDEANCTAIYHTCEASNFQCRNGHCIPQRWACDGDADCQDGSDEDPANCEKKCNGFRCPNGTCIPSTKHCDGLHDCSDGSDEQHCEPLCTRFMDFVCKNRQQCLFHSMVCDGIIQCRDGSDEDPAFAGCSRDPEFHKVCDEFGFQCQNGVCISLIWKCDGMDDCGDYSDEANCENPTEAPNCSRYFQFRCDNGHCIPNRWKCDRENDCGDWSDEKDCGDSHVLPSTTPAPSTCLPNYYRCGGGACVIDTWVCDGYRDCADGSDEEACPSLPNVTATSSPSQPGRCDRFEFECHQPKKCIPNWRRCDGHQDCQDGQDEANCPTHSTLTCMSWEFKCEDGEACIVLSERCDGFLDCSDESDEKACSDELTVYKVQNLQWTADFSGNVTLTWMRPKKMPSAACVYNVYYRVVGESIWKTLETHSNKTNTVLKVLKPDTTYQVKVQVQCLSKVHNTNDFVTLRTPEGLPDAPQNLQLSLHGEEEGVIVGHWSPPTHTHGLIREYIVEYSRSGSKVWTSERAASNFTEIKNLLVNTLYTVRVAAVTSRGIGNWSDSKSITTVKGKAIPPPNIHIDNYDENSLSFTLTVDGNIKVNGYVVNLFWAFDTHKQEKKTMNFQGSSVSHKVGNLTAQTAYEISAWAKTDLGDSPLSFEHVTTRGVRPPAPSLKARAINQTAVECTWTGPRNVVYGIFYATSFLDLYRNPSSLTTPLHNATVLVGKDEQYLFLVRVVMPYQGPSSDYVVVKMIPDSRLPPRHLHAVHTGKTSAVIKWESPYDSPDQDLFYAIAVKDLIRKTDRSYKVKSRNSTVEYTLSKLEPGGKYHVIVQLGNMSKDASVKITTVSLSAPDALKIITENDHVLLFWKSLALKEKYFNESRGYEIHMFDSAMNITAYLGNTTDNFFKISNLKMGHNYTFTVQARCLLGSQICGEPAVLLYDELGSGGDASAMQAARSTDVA

[3] = target: T1, purified human soluble LR11; experiment: sandwich ELISA, immobilized mouse IgG, liquid-phase biotinylated M5
[4] = target: T2, purified rabbit soluble LR11; experiment: as above
[5] = target: T1, purified human soluble LR11; experiment: sandwich ELISA, immobilized mouse IgG, liquid-phase biotinylated R14
[6] = target: T2, purified rabbit soluble LR11; experiment: as above
[7] = target: T1, purified human soluble LR11; experiment: sandwich ELISA, immobilized mouse IgG, liquid-phase biotinylated R23
[8] = target: T2, purified rabbit soluble LR11; experiment: as above
[9] = target: T1, purified human soluble LR11; experiment: sandwich ELISA, immobilized mouse IgG, liquid-phase biotinylated A2-2-3
[10] = target: T2, purified rabbit soluble LR11; experiment: as above
[11] = target: T1, purified human soluble LR11; experiment: sandwich ELISA, immobilized mouse IgG, liquid-phase biotinylated mouse IgG
[12] = target: T2, purified rabbit soluble LR11; experiment: as above
[13] = target: T1, purified human soluble LR11; experiment: affinity capture from serum on RAP/GST bound to Glutathione Sepharose
[14] = target: T2, purified rabbit soluble LR11; experiment: as above

T1 sequence (Q92673 82-2137 limits assumed): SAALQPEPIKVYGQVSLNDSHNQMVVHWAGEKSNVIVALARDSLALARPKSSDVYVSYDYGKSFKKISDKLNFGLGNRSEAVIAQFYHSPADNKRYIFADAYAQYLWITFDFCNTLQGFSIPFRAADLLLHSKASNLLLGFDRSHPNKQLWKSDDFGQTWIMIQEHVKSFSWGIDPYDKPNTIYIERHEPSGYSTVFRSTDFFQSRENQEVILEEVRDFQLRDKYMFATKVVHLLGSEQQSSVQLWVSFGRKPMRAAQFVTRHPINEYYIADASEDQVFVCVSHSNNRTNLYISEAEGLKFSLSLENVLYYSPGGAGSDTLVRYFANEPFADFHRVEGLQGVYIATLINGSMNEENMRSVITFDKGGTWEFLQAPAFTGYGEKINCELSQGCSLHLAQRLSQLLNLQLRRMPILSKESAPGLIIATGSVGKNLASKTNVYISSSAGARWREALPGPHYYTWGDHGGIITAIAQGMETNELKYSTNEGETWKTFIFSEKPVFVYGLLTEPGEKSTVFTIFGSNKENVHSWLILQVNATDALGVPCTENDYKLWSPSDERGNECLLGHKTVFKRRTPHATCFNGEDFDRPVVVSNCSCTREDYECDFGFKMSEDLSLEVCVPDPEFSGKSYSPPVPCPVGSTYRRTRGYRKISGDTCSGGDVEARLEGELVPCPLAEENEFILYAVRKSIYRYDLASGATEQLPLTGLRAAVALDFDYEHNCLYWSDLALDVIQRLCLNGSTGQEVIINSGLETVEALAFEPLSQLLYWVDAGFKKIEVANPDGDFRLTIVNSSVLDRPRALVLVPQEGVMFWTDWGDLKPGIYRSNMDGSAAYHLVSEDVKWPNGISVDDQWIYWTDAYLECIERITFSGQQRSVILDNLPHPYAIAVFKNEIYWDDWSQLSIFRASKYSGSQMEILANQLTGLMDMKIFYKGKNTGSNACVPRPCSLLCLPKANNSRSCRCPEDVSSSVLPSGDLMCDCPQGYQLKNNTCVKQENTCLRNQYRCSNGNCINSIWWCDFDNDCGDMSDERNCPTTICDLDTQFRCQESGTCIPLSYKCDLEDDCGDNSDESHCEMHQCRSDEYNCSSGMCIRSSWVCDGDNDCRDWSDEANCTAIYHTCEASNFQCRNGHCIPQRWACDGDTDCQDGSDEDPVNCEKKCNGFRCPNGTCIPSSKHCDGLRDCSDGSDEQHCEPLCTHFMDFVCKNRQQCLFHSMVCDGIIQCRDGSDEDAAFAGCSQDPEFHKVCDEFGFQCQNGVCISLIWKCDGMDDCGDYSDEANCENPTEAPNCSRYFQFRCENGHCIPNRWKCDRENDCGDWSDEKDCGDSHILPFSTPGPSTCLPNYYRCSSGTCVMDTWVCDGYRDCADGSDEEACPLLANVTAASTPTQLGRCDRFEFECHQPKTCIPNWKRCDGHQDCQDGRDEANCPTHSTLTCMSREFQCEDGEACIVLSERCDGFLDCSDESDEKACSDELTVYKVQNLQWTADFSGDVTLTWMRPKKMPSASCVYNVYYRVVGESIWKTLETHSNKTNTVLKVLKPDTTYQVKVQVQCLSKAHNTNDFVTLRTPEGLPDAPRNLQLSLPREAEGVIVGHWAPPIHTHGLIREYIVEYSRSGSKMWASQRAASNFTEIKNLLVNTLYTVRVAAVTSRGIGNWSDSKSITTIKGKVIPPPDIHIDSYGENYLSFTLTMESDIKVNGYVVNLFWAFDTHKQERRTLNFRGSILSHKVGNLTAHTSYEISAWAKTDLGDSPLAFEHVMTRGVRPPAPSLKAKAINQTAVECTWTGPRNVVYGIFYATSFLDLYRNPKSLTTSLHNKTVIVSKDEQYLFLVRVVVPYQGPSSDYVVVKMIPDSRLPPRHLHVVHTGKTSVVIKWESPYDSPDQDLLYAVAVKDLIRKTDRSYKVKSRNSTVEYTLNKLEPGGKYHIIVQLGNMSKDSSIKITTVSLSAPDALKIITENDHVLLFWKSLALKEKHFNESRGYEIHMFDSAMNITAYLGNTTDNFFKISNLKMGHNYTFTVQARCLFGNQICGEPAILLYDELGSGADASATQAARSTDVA

| Absorbance (492 nm) (Absorbance (492 nm)) [1] | Absorbance (492 nm) (Absorbance (492 nm)) [2] | Absorbance (492 nm) (Absorbance (492 nm)) [3] | Absorbance (492 nm) (Absorbance (492 nm)) [4] | Absorbance (492 nm) (Absorbance (492 nm)) [5] | Absorbance (492 nm) (Absorbance (492 nm)) [6] | Absorbance (492 nm) (Absorbance (492 nm)) [7] | Absorbance (492 nm) (Absorbance (492 nm)) [8] | Absorbance (492 nm) (Absorbance (492 nm)) [9] | Absorbance (492 nm) (Absorbance (492 nm)) [10] | Absorbance (492 nm) (Absorbance (492 nm)) [11] | Absorbance (492 nm) (Absorbance (492 nm)) [12] | binding result [13] | binding result [14] | Molecule |
| --- | --- | --- | --- | --- | --- | --- | --- | --- | --- | --- | --- | --- | --- | --- |
| 0.024 | -0.017 | 0.007 | -0.017 | -0.017 | -0.019 | -0.02 | -0.026 | 0.015 | -0.017 | -0.003 | 0.043 |  |  | mouse IgG (negative control) (antibody) |
|  |  |  |  |  |  |  |  |  |  |  |  | binds | binds | RAP/GST fusion protein (other, human, UniProt P30533 35-357, looked up, Expressed in E. coli DH5alpha and adsorbed on Glutathione Sepharose 4 FF; also called RAP-Sepharose resin; RAP (receptor associated protein); not shown: GST encoded by vector pGEX2T (GE Healthcare Bio Science)) YSREKNQPKPSPKRESGEEFRMEKLNQLWEKAQRLHLPPVRLAELHADLKIQERDELAWKKLKLDGLDEDGEKEARLIRNLNVILAKYGLDGKKDARQVTSNSLSGTQEDGLDDPRLEKLWHKAKTSGKFSGEELDKLWREFLHHKEKVHEYNVLLETLSRTEEIHENVISPSDLSDIKGSVLHSRHTELKEKLRSINQGLDRLRRVSHQGYSTEAEFEEPRVIDLWDLAQSANLTDKELEAFREELKHFEAKIEKHNHYQKQLEIAHEKLRHAESVGDGERVSRSREKHALLEGRTKELGYTVKKHLQDLSGRISRARHNEL |
